Source: paper PMC7884431

Experiments:
[1] = system: RFL79 (Rf1) (Triticum aestivum (accession R197 for the cloned gene; source of the REMSA construct not stated)); experiment: EMSA; conditions: apparent Kd; protein mostly aggregated; 1 nM probe; Binding buffer 1x THE (34 mM Tris, 66 mM HEPES, 0.1 mM EDTA, pH 8), 0.2 M NaCl, 5 mM DTT, 5 mg/mL heparin, 0.1 mg/mL BSA, RNaseOUT (10 uL) + 5 uL protein in …
[2] = system: RFL29a (Rf3) (Triticum aestivum (accession R0934F for the cloned gene; source of the REMSA construct not stated)); experiment: EMSA; conditions: apparent Kd; protein mostly aggregated; 1 nM probe; Binding buffer 1x THE (34 mM Tris, 66 mM HEPES, 0.1 mM EDTA, pH 8), 0.2 M NaCl, 5 mM DTT, 5 mg/mL heparin, 0.1 mg/mL BSA, RNaseOUT (10 uL) + 5 uL protein in …

Sequence	Kd [1] [nM]	Kd [2] [nM]
CUGUAAAUCAAGAAUUCCUCGAAGA [BS RFL79 (orf279)]	1000	
CUUCACCUGUGCACUUAUUUAUGUAU [BS RFL29a (orf279)]		1000
